± gives the standard deviation of the averaged measurements.
Test system: Saccharomyces cerevisiae
Experiment: protein stability index of tFT-peptide fusion (C-terminal peptide) (PSI (0-1 scale)); higher = more stable (slower turnover)
Conditions: genetic background: wild type; temperature: 30 C
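Note: PSI is a weighted mean of sequencing reads over stability bins, variants kept only with over 10 reads, mCherry proximal and sfGFP distal, peptide attached via GGGS linker.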

Row | Sequence | protein stability index
1 | ARLAVTLLISPS | 0.604 ± 0.016
2 | PCAPHPPPWVVL | 0.6058 ± 0.0056
3 | YASKQNPKPPSP | 0.682 ± 0.039
4 | FFSLISVFCPYP | 0.533 ± 0.065
5 | PPPLPPPSPCPL | 0.702 ± 0.018
6 | GLCHFVRLSCFC | 0.5186 ± 0.0024
7 | PIFPALPRLSPS | 0.725 ± 0.022
8 | VKVKRCVRKVGG | 0.687 ± 0.046
9 | PPPPTLPPPPLS | 0.722 ± 0.14
10 | MGHLFIPSQSQS | 0.715 ± 0.048
11 | SACAPSPPSPSP | 0.749 ± 0.015
12 | GGGGGWVRWASG | 0.689 ± 0.064
13 | PLTACPSAPTLP | 0.667 ± 0.0078
14 | LSPLHSPCLPCP | 0.679 ± 0.039
15 | RNPLDGDSGSRG | 0.699 ± 0.0076
16 | KNSTKHIKNEKN | 0.774 ± 0.044
17 | PNAFTEPTHPGR | 0.742 ± 0.066
18 | RASTRGIMISKS | 0.706 ± 0.034
19 | FRPLPFYRLSPP | 0.727 ± 0.021
20 | GLVGSGFVCIGM | 0.697 ± 0.15
21 | EYRKSVERLRVD | 0.687 ± 0.053
22 | FFWFFFLRFLFS | 0.568 ± 0.031
23 | PLPPPLPASSPP | 0.681 ± 0.045
24 | KWNVFRKGRGNI | 0.793 ± 0.047
25 | TTVESYLDRRRY | 0.664 ± 0.035
26 | LVYLASGMYRFV | 0.607 ± 0.02

Row | Sequence | protein stability index
27 | GVVRWGRVVGCF | 0.631 ± 0.084
28 | AETALGVCGVLC | 0.785 ± 0.11
29 | LPRSSRFPSPSR | 0.765 ± 0.012
30 | CCSWPSRLLLEG | 0.722 ± 0.026
31 | APRRPPQHPTLL | 0.626 ± 0.038
32 | PPPLPLPPITPT | 0.53 ± 0.078
33 | QPQRSRLRQQNT | 0.734 ± 0.081
34 | TVERGGSLSLVV | 0.718 ± 0.026
35 | VVRARLYVWWLG | 0.664 ± 0.13
36 | PPPPPPPRGPPR | 0.627 ± 0.014
37 | FAGAEFCGPVGV | 0.629 ± 0.0024
38 | LSPGPVHDRSRP | 0.675 ± 0.03
39 | NQHKKGQKKKGI | 0.684 ± 0.042
40 | TIRHKALTRKSR | 0.713 ± 0.012
41 | GGGRVSAGGDSG | 0.751 ± 0.071
42 | LGGCGWVDWWGL | 0.732 ± 0.0096
43 | GKSGGAVRGCGG | 0.657 ± 0.044
44 | CLIGYFPYRLVL | 0.502 ± 0.025
45 | GYLVPLPSSGSS | 0.661 ± 0.057
46 | VGFLGFFVVEGV | 0.545 ± 0.033
47 | GLHVPLTGFCFC | 0.63 ± 0.02
48 | VPPPLTSPSWHF | 0.6825 ± 0.0036
49 | RRCGETTEQTVR | 0.71 ± 0.059
50 | ATSCLPLPSCPG | 0.726 ± 0.019
51 | LLFRSPPPTVHS | 0.769 ± 0.088
52 | PFSFSSLSASVF | 0.7033 ± 0.0025

Row | Sequence | protein stability index
53 | CSHPHPSSNLPS | 0.683 ± 0.045
54 | KQPGAGGGEVGG | 0.6555 ± 0.002
55 | GLFCGLGVGTCG | 0.621 ± 0.059
56 | HNSRTVPISVSV | 0.528 ± 0.038
57 | SPPPPHPPPPAD | 0.651 ± 0.098
58 | QEKSLSHTQRYR | 0.762 ± 0.072
59 | LGTLLWGGAGRG | 0.713 ± 0.01
60 | RKVKGKKRYTEG | 0.662 ± 0.058
61 | SHVVRHVSTVEK | 0.7 ± 0.023
62 | SPPPALLPPLFP | 0.73 ± 0.064
63 | SWCQFAVGGIIH | 0.664 ± 0.013
64 | CRSGERSHKMLL | 0.63 ± 0.011
65 | ALPARFSSFRLP | 0.678 ± 0.019
66 | SHQTTKQKKKNL | 0.624 ± 0.013
67 | TGVGRLGYRFVV | 0.588 ± 0.0064
68 | VGWAGHVWFWWG | 0.683 ± 0.064
69 | ISPLPPVPAGLS | 0.6906 ± 0.0056
70 | WPLISPFSKHRW | 0.696 ± 0.055
71 | SSFFAFYSRRRF | 0.714 ± 0.052
72 | VFTSPPPLPSPP | 0.728 ± 0.029
73 | VPRTGSLHARLP | 0.715 ± 0.03
74 | GGRTEYILQLKK | 0.686 ± 0.021
75 | GRPTRRHRGRLV | 0.709 ± 0.028
76 | CGVSRIGLAGDV | 0.671 ± 0.039
77 | VLSLPPLFRTSA | 0.636 ± 0.0086
78 | LGVGGPSVREGE | 0.706 ± 0.034

Row | Sequence | protein stability index
79 | WCVLLMALFRWW | 0.625 ± 0.025
80 | SCSDPPSPLPLS | 0.686 ± 0.0088
81 | MCFLSCCSFRFC | 0.6162 ± 0.0044
82 | KGVWLGGGCGLR | 0.685 ± 0.025
83 | SGGGGGGQVAVG | 0.739 ± 0.1
84 | PDCVRVSGLGLS | 0.665 ± 0.045
85 | PPRVFGFFPFPP | 0.774 ± 0.079
86 | ALRLLLFISKSP | 0.6119 ± 0.0013
87 | SSFRRFVLVGFE | 0.607 ± 0.011
88 | VLFLESWLRFRT | 0.623 ± 0.073
89 | RSTGFHRVSCGI | 0.72 ± 0.06
90 | SPAPIRFLWTIP | 0.59 ± 0.028
91 | VLSFPYLSRKCI | 0.546 ± 0.037
92 | PRSSSRAGRTGT | 0.712 ± 0.031
93 | SRASATTLRLAT | 0.66 ± 0.015
94 | LPVPLPYFVSYF | 0.607 ± 0.009
95 | GVRIGYCIVRDV | 0.647 ± 0.022
96 | TMSPPSTSGGMG | 0.6855 ± 0.0042
97 | PSALSSSAPSSP | 0.667 ± 0.043
98 | VYTIHECADMLY | 0.712 ± 0.045
99 | AESSLSLFPPPP | 0.756 ± 0.059
100 | YLLPSTPPPRIP | 0.6912 ± 0.0048
101 | VIVHFIWPSVGR | 0.652 ± 0.03

Source: the supplement of paper PMC10724198
